According to patent US20210238290A1 (DRAGONFLY THERAPEUTICS, published 2021):

B1: anti-P-cadherin mAb (TSP7 wt mAb) (antibody, V domains shown)
VH: QVQLQESGPELVKPGASVKMSCKASGYSFTAYNMHWVKQSHGKSLEWIGFIDPYSGIITYNQTFKGKATLTVDKSSSTAYMQLNSLTSEDSAVYYCARRGYYDGGFDYWGQGTTLTVSS
VL: DIQMTQTTSSLSASLGDRVTISCRASQDITNYLNWYQQKPDGTVKLLIYYTSRLHSGVPSRFSGSGSGTDYSLTISNLEQEDIATYFCQQDSKHPRTFGGGTKLEIK
notes: it was detected with an anti-human IgG secondary antibody; also called TSP7 mAb
B2: anti-P-cadherin mAb (D153 wt mAb) (antibody, V domains shown)
VH: EVQLVQSGAEVKKPGASVKVSCKASGYTFTSYGISWVRQAPGQGLEWMGWISAYNGNTNYAQKLQGRVTMTTDTSTSTAYMELRSLRSDDTAVYYCATIDTANAFGIWGQGTMVTVSS
VL: QSVLTQPPSVSAAPGQKVTISCSGSSSNIGNNYVSWYQQLPGTAPKLLIYDNNKRPSGIPDRFSGSKSGTSATLGITGLQTGDEADYYCGTWDSSLSGVVFGGGTKLTVL
notes: it was detected with an anti-human IgG secondary antibody; also called D153 mAb

Target: T1, human P-cadherin (CDH3) expressed on cancer cell lines HCT116, H1975 and CAL27 (human, UniProt P22223 108-829)
T1 construct: whole, on cells
T1 sequence (P22223 108-829): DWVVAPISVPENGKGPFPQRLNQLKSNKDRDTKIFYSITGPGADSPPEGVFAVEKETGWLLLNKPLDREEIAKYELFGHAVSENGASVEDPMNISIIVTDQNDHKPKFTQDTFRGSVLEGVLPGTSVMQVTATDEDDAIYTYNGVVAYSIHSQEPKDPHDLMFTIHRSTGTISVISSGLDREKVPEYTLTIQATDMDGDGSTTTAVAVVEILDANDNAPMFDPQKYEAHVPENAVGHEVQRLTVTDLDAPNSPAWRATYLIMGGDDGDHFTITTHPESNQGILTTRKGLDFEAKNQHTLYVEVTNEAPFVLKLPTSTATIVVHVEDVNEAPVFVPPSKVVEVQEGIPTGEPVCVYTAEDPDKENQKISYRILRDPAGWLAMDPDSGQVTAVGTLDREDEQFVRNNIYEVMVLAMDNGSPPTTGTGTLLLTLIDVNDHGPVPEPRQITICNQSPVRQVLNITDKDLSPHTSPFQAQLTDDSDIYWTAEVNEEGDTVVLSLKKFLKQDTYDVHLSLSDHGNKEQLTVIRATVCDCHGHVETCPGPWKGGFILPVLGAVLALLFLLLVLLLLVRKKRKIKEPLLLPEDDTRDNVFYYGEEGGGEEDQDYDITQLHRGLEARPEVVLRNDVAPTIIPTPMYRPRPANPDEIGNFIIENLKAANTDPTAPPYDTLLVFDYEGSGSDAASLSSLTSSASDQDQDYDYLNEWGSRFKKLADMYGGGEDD
Test: flow cytometry on H1975, HCT116 and CAL27 cells, MFI fold over background
Description: Human P-cadherin (CDH3)-expressing cancer cell lines, HCT116, H1975 and CAL27, were used to assess tumor antigen binding of multi-specific binding proteins having a P-cadherin (CDH3) binding site comprising a heavy chain variable domain sequence identical to SEQ ID NO:196 and a light chain variable domain sequence identical to SEQ ID NO:200 (D153 DB), or a P-cadherin (CDH3) binding site comprising a heavy chain variable domain sequence identical to SEQ ID NO:188 and a light chain variable domain sequence identical to SEQ ID NO:192 (TSP7 DB). Multi-specific binding proteins or corresponding monoclonal antibodies (mAb) having the same P-cadherin (CDH3) binding site were diluted and incubated with the cells. Binding was detected using a fluorophore conjugated anti-human IgG secondary antibody. Cells were analyzed by flow cytometry and binding was expressed as mean fluorescence intensity (MFI) normalized to human recombinant IgG1 stained controls to obtain fold over background (FOB) values.

| Binder | binding result |
| --- | --- |
| B1 | binds |
| B2 | binds |
